Test results as given in the supplement of paper PMC10724198.
± gives the standard deviation of the averaged measurements.

What was measured:
Saccharomyces cerevisiae [1] = assay: protein stability index of tFT-peptide fusion (C-terminal peptide) (PSI (0-1 scale)); higher = more stable (slower turnover)
Experimental: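 MPS profiling in S. cerevisiae of the tFT-X12 degron library: putative degron peptides plus stable controls, 12 aa, fused to the C-terminus of a sfGFP-mCherry timer. Cells are FACS-sorted into 8 mCherry/sfGFP bins and deep-sequenced. PSI runs from 0 (unstable) to 1 (stable). Backgrounds are wild type, das1Δ and doa10Δ at 30 °C, and wild type, das1Δ, cdc34-1 and cdc53-1 at 37 °C; 2-3 technical replicates each.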

Saccharomyces cerevisiae [2] = assay: as above; conditions: genetic background: wild type; temperature: 30 C
[3] = genetic background: cdc34-1, temperature: 37 C
[4] = genetic background: cdc53-1, temperature: 37 C
[5] = genetic background: das1 deletion, temperature: 30 C
[6] = genetic background: das1 deletion, temperature: 37 C
[7] = genetic background: doa10 deletion, temperature: 30 C
[8] = genetic background: wild type, temperature: 30 C
[9] = genetic background: wild type, temperature: 37 C
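Further: PSI is a weighted mean of sequencing reads over stability bins, variants kept only with over 10 reads, mCherry proximal and sfGFP distal, peptide attached via GGGS linker.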

Row | Sequence | protein stability index (Saccharomyces cerevisiae [1]; [3]) | protein stability index (Saccharomyces cerevisiae [1]; [4]) | protein stability index (Saccharomyces cerevisiae [1]; [5]) | protein stability index (Saccharomyces cerevisiae [1]; [6]) | protein stability index (Saccharomyces cerevisiae [1]; [7]) | protein stability index (Saccharomyces cerevisiae [1]; [8]) | protein stability index (Saccharomyces cerevisiae [1]; [9]) | protein stability index (Saccharomyces cerevisiae [2])
1 | LSVSLFPIRYVG | 0.666 ± 0.027 | 0.76446 ± 1.3e-05 | 0.617 ± 0.019 | 0.7638 ± 0.0037 | 0.196 ± 0.0098 | 0.24 ± 0.02 | 0.453 ± 0.016 | 0.396 ± 0.025
2 | VYVRYYVRVVVI | 0.0256 ± 0.0012 | 0.0406 ± 0.00046 | 0.0781 ± 0.04 | 0.167 ± 0.024 | 0.0369 ± 0.0049 | 0.046 ± 0.016 | 0.0659 ± 0.0096 | 0.115 ± 0.012
3 | FRVSAFFLPFLS | 0.652 ± 0.031 | 0.715 ± 0.008 | 0.655 ± 0.022 | 0.735 ± 0.015 | 0.226 ± 0.011 | 0.246 ± 0.022 | 0.486 ± 0.048 | 0.4 ± 0.013
4 | VVQCRFPTPCVV | 0.486 ± 0.035 | 0.485 ± 0.033 | 0.372 ± 0.03 | 0.5335 ± 0.0022 | 0.349 ± 0.0096 | 0.376 ± 0.027 | 0.496 ± 0.022 | 0.476 ± 0.013
5 | MIILGFILYFFW | 0.4 ± 0.011 | 0.533 ± 0.03 | 0.332 ± 0.035 | 0.505 ± 0.018 | 0.352 ± 0.04 | 0.347 ± 0.034 | 0.444 ± 0.018 | 0.422 ± 0.033
6 | PKRNNRKAQQIS | 0.61 ± 0.015 | 0.698 ± 0.038 | 0.689 ± 0.019 | 0.704 ± 0.06 | 0.249 ± 0.016 | 0.254 ± 0.043 | 0.493 ± 0.019 | 0.405 ± 0.032
7 | GVQFRRPLIPIY | 0.514 ± 0.0065 | 0.4877 ± 0.0027 | 0.358 ± 0.03 | 0.5467 ± 0.0036 | 0.325 ± 0.011 | 0.35 ± 0.025 | 0.517 ± 0.0099 | 0.445 ± 0.082
